The target in assay [1] is T1, canine PTH1 receptor (Canis lupus familiaris, UniProt Q9TU31).
T1 construct: A 1868 bp DNA fragment containing the complete coding region of canine PTH1 was generated by PCR; expressed in transfected cells; host or cells: CHO-K1 cells, transient transfection with canine PTH1-pCR3.1
T1 sequence (Q9TU31 29-595): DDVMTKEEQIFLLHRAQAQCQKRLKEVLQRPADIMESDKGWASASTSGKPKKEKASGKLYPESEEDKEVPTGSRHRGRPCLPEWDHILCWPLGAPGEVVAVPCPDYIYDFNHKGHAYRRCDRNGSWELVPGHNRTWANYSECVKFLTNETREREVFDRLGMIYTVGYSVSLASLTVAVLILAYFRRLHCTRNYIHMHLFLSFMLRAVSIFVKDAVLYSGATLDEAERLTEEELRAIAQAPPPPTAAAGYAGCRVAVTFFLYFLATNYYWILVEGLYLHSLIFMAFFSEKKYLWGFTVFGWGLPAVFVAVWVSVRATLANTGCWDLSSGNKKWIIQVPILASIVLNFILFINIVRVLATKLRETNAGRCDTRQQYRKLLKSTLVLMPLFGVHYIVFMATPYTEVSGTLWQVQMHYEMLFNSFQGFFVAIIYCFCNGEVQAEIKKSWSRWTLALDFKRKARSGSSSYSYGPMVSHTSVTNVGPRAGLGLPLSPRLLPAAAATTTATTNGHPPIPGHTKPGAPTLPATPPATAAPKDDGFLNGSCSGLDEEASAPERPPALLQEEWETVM
The assay is described as follows: Intracellular cAMP accumulation in CHO cells transiently transfected with canine PTH1. The class given is cell-based. To be noted: peptide 10^-7 M, 15 minutes at 37° C. As for the experimental part:
(§1) CHO-K1 cells were purchased from ATCC (Rockville, Md.) and maintained in Dulbecco's modified Eagle's medium/F12 (DMEM/F12, Life Technologies, Gaithersburg, Md.) supplemented with 10% fetal calf serum (FCS, Gemini Bio-Products, Calabasas, Calif.). CHO cells were plated in 12 and 24-well plates (Becton Dickinson, Franklin Lakes, N.J.) at 1.6×10^6 cells/plate in DMEM/F12 supplemented with 10% FCS. 24 hours later, each plate of cells was transfected with 10 μg of the canine PTH1-pCR3.1 expression plasmid using Lipofectamine reagent (Life Technologies). Total volume of DNA-lipofectamine mix was 500 μl/well and 250 μl/well in the 12- and 24-well plates, respectively. After 5 hours, an equal volume of media supplemented with 20% FCS was added to each well and after 24 hours, the media was replaced with growth media. The cells were then allowed to grow for an additional 24 hours, at which time the cells in the 24-well plates were used in the PTH binding assay and the cells in the 12-well plates were used to determine receptor activation by measuring cAMP.
(§2) ^125I-human PTH 1-34 amide (2000 Ci/mmol) was purchased from Amersham (Arlington Heights, Ill.). Human PTH 1-34 and human PTHrP 1-34 were purchased from Peninsula Laboratories (San Carlos, Calif.). Canine PTH (1-34) and PTHrP (1-34) (Rosol, 1995) were custom synthesized by Princeton BioMolecules (Columbus, Ohio). Human aldosterone secretion inhibitory factor (1-35), used as a similarly sized non-specific peptide, was purchased from Sigma.
To measure stimulation of cAMP production, cells transiently transfected with canine PTH1 were rinsed once with test medium (serum-free DMEM/F12 containing 0.2 mM 3-isobutyl-1-methylxanthine (IBMX; Calbiochem, La Jolla, Calif.)), then preincubated with 1 ml/well test medium for 10 minutes at 37° C. This medium was removed and cells were incubated with test medium containing the indicated peptides (10^−7 M) for 15 minutes at 37° C. […] Upon thawing cAMP was measured using a commercially available ELISA kit (Cayman Chemical, Ann Arbor, Mich.).

The target of assay [2] is T1, canine PTH1 receptor. The assay is described as follows: Whole cell 125I-human PTH (1-34) competition binding to canine PTH1 transiently transfected CHO cells. The conditions noted are these: canine PTH1/pCR3.1 transiently transfected CHO cells, 2 hours on ice. The protocol: as §1, §2
Canine PTH1 transiently transfected CHO cells in 24-well plates were subjected to whole cell human ^125I-PTH (1-34) competition binding. Culture media was removed, cell monolayers washed once each with ice-cold Dulbecco's phosphate buffered saline (Life Technologies) and ice-cold assay buffer (AB; 50 mM Tris-HCl, 100 mM NaCl, 2 mM CaCl2, 5 mM KCl, 0.5% heat inactivated FCS (Life Technologies), and 5% heat-inactivated horse serum (Life Technologies), pH 7.7). Subsequent to adding 225 μl of AB to each well, 25 μl of 10x peptide (10^−4- […]) in AB containing 800 cpms/μl of ^125I-human PTH (1-34) was added to each of three wells. Plates were incubated for 2 hours on ice, binding mix removed by aspiration, washed 2x with ice-cold assay AB, cells solubilized in 1% SDS and total bound counts determined. Percent bound ^125I-PTH (1-34) was calculated using the following equation: [formula]

“Also recorded” adds a separate entry of the source.

For “canine PTH (1-34): Canine parathyroid hormone fragment 1-34, custom synthesized by Princeton BioMolecules (SVSEIQFMHNLGKHLSSMERVEWLRKKLQDVHNF)”, in the assay with canine PTH1 receptor [1], the “intracellular cAMP accumulation (PTH1 activation)” value (from here on “intracellular cAMP accumulation”) is recorded as “increase in intracellular cAMP”. Further, the results for the “binding to canine PTH1 (displacement of 125I-hPTH (1-34))” value (“binding to canine PTH1” below) with canine PTH1 receptor [2] and with canine PTH1 receptor [2] (listed as canine PTH) were “specific displacement; also recorded: high affinity binding” and “specific binding”, respectively.
Turning to “human PTH (1-34): Human parathyroid hormone fragment 1-34, purchased from Peninsula Laboratories”, in the assay with canine PTH1 receptor [1], the “intracellular cAMP accumulation” value is listed as “increase in intracellular cAMP”. Further, the “binding to canine PTH1” value is “specific displacement; also recorded: high affinity binding” with canine PTH1 receptor [2] and “specific binding” with canine PTH1 receptor [2] (listed as Human PTH).
For the substance “canine/human PTHrP (1-34): Canine/human parathyroid hormone related peptide fragment 1-34”, the “intracellular cAMP accumulation” value in the assay with canine PTH1 receptor [1] is “increase in intracellular cAMP”. The figures for the “binding to canine PTH1” value with canine PTH1 receptor [2], with canine PTH1 receptor [2] (listed as canine PTHrP) and in the assay with canine PTH1 receptor [2] (listed as canine/human parathyroid hormone related peptide (PTHrP) (1-34)) were “high affinity binding”, “specific binding” and “specific displacement”, respectively.

The record behind these values is patent US20020146777A1, “Canine parathyroid hormone 1 receptor” (priority 2000, published 2002).
